Values of other authors, collected in PMC7337057.

Key:
Glu118 = Glu118 (UniProt position 118, WFVGREQERRG); test: NMR (solid-state); conditions: not stated for this study (around 0 °C is stated for related SSNMR work from the same laboratory); 0.2 μM K+; K+ titrated at constant pH and ionic strength (value not stated); low ambient K+ (0.2 μM): K+-apo, collapsed selectivity filter, pH gate favoured open
Glu120 = Glu120 (UniProt position 120, VGREQERRGHF); test: NMR (solid-state); conditions: not stated for this study (around 0 °C is stated for related SSNMR work from the same laboratory); 0.2 μM K+; K+ titrated at constant pH and ionic strength (value not stated); low ambient K+ (0.2 μM): K+-apo, collapsed selectivity filter, pH gate favoured open

## KcsA potassium channel (pH-gated K+ channel) (Streptomyces lividans)
Glu118
  pKa: above 7.5
Glu120
  pKa: above 7.5
